Measured values taken from the DeepSol protein solubility set.

Assay: soluble on expression in E. coli; label from the status in PepcDB or PDB records

Row | Sequence | soluble on expression in E. coli
1 | MSLTHSTMHPYISLLDNEIYTHQGKEVITNMYNIIEKNLTLNLIANNVQYHPNQKTISFTHPSITIFNNKNIAIWYITCNQAQLYHQKKTLNLHGQVFINQIVKKICTQSIITNQLLIDLNNQSIISNNKTIIHGHYFYSIGSCMNINLHTQTTTLFGKIYTQYEIQNMEGHHHHHH | not soluble
2 | GMAGKVEARKAALREKLIDLAEAQIEAEGLASLRARELARQADCAVGAIYTHFQDLNALTLEVNGRTFARLGAAVGAVVADGQDDHPNERLIAMSHAYLAFAREHPKLWRALFDVEMRSDGPVPQWYGHAMAQLFSYITTPLAKIFPESDDAELDLMTRTLFSSVHGIVLLGLENRISGVPGEQLKTMIRLLLEQVGR | soluble
3 | KITGLLDGDRVIVFDKNGISKLSARHYGNVEGNFLSLSLVEALYLINLGWLEVKYKDNKPLSFEELYEYARNVEERLCLKYLVYKDLRTRGYIVKTGLKYGADFRLYERGANIDKEHSVYLVKVFPEDSSFLLSELTGFVRVAHSVRKKLLIAIVDADGDIVYYNMTYVKP | soluble
4 | AQNSTVKINGLTLVQSSNQLNEAITGVTIDLKKAEIGKIVTLTVDDNKDQLTGLINEFIKQYNDTMTFLTNLTGYNNETKQGGVFQGDPQFRNLKLNLNKWATTPLANQEGPIRSLADLGIITNKQGLLEIKQDKFKTALDNHYKEIGALFAKTAKANDTGINVKSINSTVKSGTYDVVLTEFTPGVSMSGTIGGLSAISSDGITLTGSADLSGLSINVFSGSAGSRGQITVTDGIAVQLSSLLDAYIEIKGDLEQRKDQLNNQVKQLNKIQNEIDIRRKSIETRYLKQFTALDTLLSQLQS | soluble
5 | MKCSKCQAEAIYFAKYNGLYLCREHFNDMIEKRVKSEIRNQVDLKKPMVRISVAISGGKDSSVTLYLLHKILSKRRNVELTAFTVDEGISGYRPAGLESAIKLTKMLGVDHSIIRFQDSFGMTLDSIVGADASRIPCSYCGPLRRKLINEMAERQNADYVALGLNLDDYSQSILMNVAKGDYDRLLRMSPQKEAKDGLVRRIAPLRSVLEKEVVLYAVINGIPFDSSWCPYYSRAQRNIFREVVNTLSEYNPSTKFSILKFFERARSDVQRNDKALGRCRICGAPTENDVCSACAAMESLRNERKASESELHAR | not soluble
6 | MRKLKMMLCVMMLPLVVVGCTSKQSVSQCVKPPPPPAWIMQPPPDWQTPLNGIISPSGNDWLEHHHHHH | not soluble
7 | MAHHHHHHMGGYIGYNLVYNQQASVSQALWSREDEDVAPVSMPVRPRVALVNMTENLRSCAMGGLRAWLDVADEVELEFPTVTFVEDDEAGAIAGLAAEVRRAALFAWVELKERHEMDAPFGVKPLCCVVFRSITEVDGQALDAWDVQEVELRRWHGKRFVTRHCVGASVDGKRAMVLMHDVEGVIDVGPAAALAGGRVSDCGALVRQYGAPSTASFRRWKLSAEAQSSSTPVQPPAKSLQGLGIRLRDGQRCQLWQSPLHIFAALGAVLRYNRADAAVYPNHITTPVPVSQSASAVSASLWGCVKEWALRCTPTLLHWYTARQAERMERQRQLSSTFVVVVRLAEERAAVTSDVLRVVEEHVAEWMRDMNGASPMKTSLSTANRVCVRDAAARPEELMAAPTIQVDLTDTVCSVIAAEWLLIRLTSLFAALGLEPALAQLVAVPGPQASTSLLYPTPNTAHLRHLWLSRSATTSSSTITDNDAKSPRVTWSGRTTQGEHIAGCAATMPIEAGYVVSEHYFSAF | not soluble
8 | MTGIYYLYLRQDDPKKATMRKLERFGLAKRVDIKGVGLKLVLTPYADIFLSREDAVLYEKYGLCVIEGSWNKIDSIKSLKFRIERRLPALLAANPVNYGKIGILSSVEATAAALYIIGYWDTAYALLSKFSWGLNFIKLNENPLNEYSTADRSEIKKIEESYFGLEHHHHHH | soluble
9 | MPKFDVSKSDLERLIGRSFSIEEWEDLVLYAKCELDDVWEENGKVYFKLDSKDTNRPDLWSAEGVARQIKWALGIEKGLPKYEVKKSNVTVYVDEKLKDIRPYGVYAIVEGLRLDEDSLSQMIQLQEKIALTFGRRRREVAIGIFDFDKIKPPIYYKAAEKTEKFAPLGYKEEMTLEEILEKHEKGREYGHLIKDKQFYPLLIDSEGNVLSMPPIINSEFTGRVTTDTKNVFIDVTGWKLEKVMLALNVMVTALAERGGKIRSVRVVYKDFEIETPDLTPKEFEVELDYIRKLSGLELNDGEIKELLEKMMYEVEISRGRAKLKYPAFRDDIMHARDILEDVLIAYGYNNIEPEEPKLAVQGRGDPFKDFEDAIRDLMVGFGLQEVMTFNLTNKEVQFKKMNIPEEEIVEIANPISQRWSALRKWILPSLMEFLSNNTHEEYPQRIFEVGLATLIDESRETKTVSEPKLAVALAGTGYTFTNAKEILDALMRHLGFEYEIEEVEHGSFIPGRAGKIIVNGRDIGIIGEVHPQVLENWNIEVPVVAFEIFLRPLYRH | soluble
10 | MGHHHHHHSAISVWRAVDYVRMPWKNGGGSTEEITRDAGTGLEGFGWRLSIADIGESGGFSSFAGYQRVITVIQGAGMVLTVDGEEQRGLLPLQPFAFRGDSQVSCRLITGPIRDFNLIYSPERYHARLQWVDGVQRFFSTAQTVLVFSVADEVKVLGEKLGHHDCLQVDGNAGLLDISVTGRCCLIELTQRG | soluble
11 | MPTVPIPARKAATTFDTPSKHERIEVKPPITRFIRRAITRVFGVWSHISTQVVRQWGWYPRVEPYVGYGTGDYSRLICRTVYAPKHAQSGELIRGIRGMLAVPAPRTHVQASIDDMPLNTVQIGVSEVYDKVDRTRDLGSEYAISDSAGYLDLVAEHRLVPGIHRVSYSVANRKPVSANLYTIPASAKVGIISDVDDTIMITQAPVPWKAAYNLLFLDPKKKASVPGMSVLFTRIADLFPGAPFFYLSTSPWNVESSIRNFITDHGFPEGPLLLRDLDPRPKTFVPTGPQHKLEFAEQLMADFPDMKFILVGDDGQKDPTTYATIARRYPGRVLAIVIRELSPRESTGLASVTGLTSTQPTPVTDVPVFTGTTGSNILKTMLPYLKTVLRLEHHHHHH | not soluble
12 | MGRRVLLSFLGLGDYEYCYYTYEGKTSTYTRFIQTAVYELFRNDEPMDVVVFATKEAQDRNGQDRKKGDKLLEGIGTAFSRIAPEANVKIVEIESGQDEQANWRLFDRIMDEIKEGDTIYFDITHSFRSIPFVALIVLNYARLVKKADIGAIIYGWFEVLGRPIDVEQMPEEQRVAPIVNLTSMAKLLDWTNGVDQFLRTGDASIIQALTAKENSEVFRNPSLSQAVKDEVKELRELTKRLDQTEKAIRTCRSLQIDEEVQKFHEQLGRVRSASAEAIKPLVPLLDVMEKKYAMFDDDPIMNSWKAVRWCLDHGLIQQALTMLEENAVTAVCRVLGLDLRNEKARGDVHSAIEILLRDIPKEEWRVRSVERVEQIIDFLSPYKGDLKRFSTLKERRNDINHAGARPQPLKAEKFWPDAEQSFRELGAFFERMSALAKSMQTVKGNG | not soluble
13 | MGIFSRFADIVNSNVTSLLDKAENPEKMIRLIIQEMEDTLVEVRTASAKALADKKELTRKISSIEAQVADWQDKASLALLKQREDLARSALIEKQKVQDILSSLKTEFILVEESIEKLSAELIELETKLTETRARQQALVIRQQTAQHRNDIKSHTHSGKTERAMAKFEQYERRIDELDAKADSYSIGKANSLEQEFAELQAQDEIDKEIERLKEQMKKDALEHHHHHH | not soluble
14 | GMTILSDVKALGQQIWLDNLSRSLVQSGELAQMLKQGVCGVTSNPAIFQKAFAGDALYADEVAALKRQNLSPKQRYETMAVADVRAACDVCLAEHESTGGKTGFVSLEVSPELAKDAQGTVEEARRLHAAIARKNAMIKVPATDAGIDALETLVSDGISVNLTLLFSRAQTLKAYAAYARGIAKRLAAGQSVAHIQVVASFFISRVDSALDATLPDRLKGKTAIALAKAAYQDWEQYFTAPEFAALEAQGANRVQLLWASTGVKNPAYPDTLYVDSLIGVHTVNTVPDATLKAFIDHGTAKATLTESADEARARLAEIAALGIDVETLAARLQEDGLKQFEEAFEKLLAPLV | soluble
15 | MSERDAIRAFSHMLETIFVRMRAEGTGSQTDAMQRWLDLYNVGSLPIDKKSYKALRLMDRETTDQQKEDATCAICLDNLQNNVDIPEDHVIKEELKIDPTTFGTTVIVMPCKHRFHYFCLTLWLEAQQTCPTCRQKVKTDKEVEEEERQRNLEELHDSMYG | not soluble
